The chains are these.
B3: Aquifex aeolicus DnaB helicase (enzyme)
chain: LPCDESAERAVLGSMLEDPENIPLVLEYLKEEDFCIDEHKLLFRVLTNLWSEYGNKLDFVLIKDHLEKKNLLQKIPIDWLEELYEEAVSPDTLEEVCKIVKQRSAQRAIIQLGIELIHKGKENKDFHTLIEEAQSRIFSIAESATSTQFYHVKDVAEEVIELIYKFKSSDRLVTGLPSGFTELDLKTTGFHPGDLIILAARPGMGKTAFMLSIIYNLAKDEGKPSAVFSLEMSKEQLVMRLLSMMSEVPLFKIRSGSISNEDLKKLEASAIELAKYDIYLDDTPALTTTDLRIRARKLRKEKEVEFVAVDYLQLLRPPVRKSSRQEEVAEVSRNLKALAKELHIPVMALAQLSREVEKRSDKRPQLADLRESGQIEQDADLILFLHRPEYYKKKPNPEEQGIAEVIIAKQRQGPTDIVKLAFIKEYTKFANLEA
notes: Aquifex aeolicus DnaB replicative helicase; also called AA DnaB; A. aeolicus DnaB; source: E. coli Rosetta (pET24a-AA-DnaB); cells co-lysed with cells expressing AA DnaC; purified as the BC complex (65°C step, heparin sepharose, Q-sepharose, Superdex-200)

Series [1] addresses T1, DnaB replicative helicase;lambda P helicase loader (Escherichia coli;bacteriophage lambda, UniProt P0ACB0;P03689 1-471;1-233, |). The experiment in a line: native MS; B6P5 with one ssDNA, 459.5 kDa; no nucleotide bound; 450 mM ammonium acetate pH 7.5, 0.5 mM magnesium acetate, 0.01% Tween-20; 5 uM protein, protein:ssDNA 1:1.2, 30 min on ice. As to conditions: protein: recombinant;recombinant; tags: untagged;; chain copies: 6;5; single strand.

In series [2] the target is B3. The experiment in a line: native MS; co-purified complex at 5 µM, buffer-exchanged into 450 mM ammonium acetate pH 7.5, 0.5 mM magnesium acetate, 0.01% Tween-20; no ssDNA. The note with it: both partners purified.
Series [3] concerns the target T1, DnaB replicative helicase;lambda P …. The experiment in a line: native MS; no protein-DNA complex; 450 mM ammonium acetate pH 7.5, 0.5 mM magnesium acetate, 0.01% Tween-20; 5 uM protein, protein:ssDNA 1:1.2, 30 min on ice. The note with it: protein: recombinant;recombinant; tags: untagged;; chain copies: 6;5; single strand.
Series [4] concerns the target T2, Escherichia coli DnaB helicase (Escherichia coli, UniProt P0ACB0 1-471).
T2 construct: E. coli DnaB replicative helicase, full length, untagged; Hexamer; The 6BBM model holds residues 17-471 at most; chain A lacks 167-203; also called EcDnaB; E. coli DnaB; source: E. coli BL21(DE3), co-expressed with λP (pET24-DnaB-EC); purified as the BP complex (ammonium sulfate, Q-sepharose, heparin sepharose, methyl HIC)
Briefly: native MS; BP complex at 5 µM in 450 mM ammonium acetate pH 7.5, 0.5 mM magnesium acetate, 0.01% Tween-20; incubated with the Oriλ-derived 43-mer ssDNA at 1:1.2 for 30 min on ice. The note with it: both partners purified.

For series [5], the target named is T2, Escherichia coli DnaB helicase. Briefly: native MS; BP sample in 500 mM ammonium acetate, 0.01% Tween-20, without magnesium acetate. As to conditions: both partners purified.
For series [6] the target is unchanged. Briefly: native MS; co-purified complex at 5 µM, buffer-exchanged into 450 mM ammonium acetate pH 7.5, 0.5 mM magnesium acetate, 0.01% Tween-20; no ssDNA. The note with it: both partners purified.
Series [7] deals with the molecule itself. The series is described as above.

Values joined by “and” are separate entries in the source; they are usually repeats but may differ in a detail not shown here. Identical values can stand only once.

The term stoichiometry N denotes the number of molecules, sites or subunits per partner or assembly.

T1 sequence (P0ACB0 whole entry, one chain of several): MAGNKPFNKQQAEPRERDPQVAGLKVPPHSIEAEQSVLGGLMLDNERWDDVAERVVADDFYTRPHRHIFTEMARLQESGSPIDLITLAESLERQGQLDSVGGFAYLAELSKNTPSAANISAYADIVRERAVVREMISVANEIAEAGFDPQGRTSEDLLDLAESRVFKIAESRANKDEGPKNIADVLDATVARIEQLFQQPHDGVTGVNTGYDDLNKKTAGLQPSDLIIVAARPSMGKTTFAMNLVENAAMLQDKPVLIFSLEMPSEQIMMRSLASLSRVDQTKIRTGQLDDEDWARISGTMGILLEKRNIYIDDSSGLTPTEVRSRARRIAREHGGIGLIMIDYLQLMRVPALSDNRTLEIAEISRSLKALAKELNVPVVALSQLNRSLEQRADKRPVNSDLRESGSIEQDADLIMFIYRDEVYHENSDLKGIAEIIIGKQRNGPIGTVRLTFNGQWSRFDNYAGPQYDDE
T2 sequence (P0ACB0 whole entry, the tested form may be a part): as the sequence (P0ACB0 whole entry, one chain of several) above

As for TGACGAATAATCTTTTCTTTTTTCTTTTGTAATAGTGTCTTTT (ssDNA) [ori-lambda DUE 43-mer], in series [1], the binding result is on record as “binds”.

B1: Aquifex aeolicus DnaC helicase loader (natural protein, UniProt O67056 1-235, looked up)
chain: MQDTATCSICQGTGFVKTEDNKVRLCECRFKKRDVNRELNIPKRYWNANLDTYHPKNVSQNRALLTIRVFVHNFNPEEGKGLTFVGSPGVGKTHLAVATLKAIYEKKGIRGYFFDTKDLIFRLKHLMDEGKDTKFLKTVLNSPVLVLDDLGSERLSDWQRELISYIITYRYNNLKSTIITTNYSLQREEESSVRISADLASRLGENVVSKIYEMNELLVIKGSDLRKSKKLSTPS
notes: Aquifex aeolicus DnaC helicase loader; Six copies stand in the complex with the DnaB hexamer; also called AA DnaC; A. aeolicus DnaC; source: E. coli Rosetta (pET24a-AA-DnaC); cells co-lysed with cells expressing AA DnaB; purified as the BC complex (65°C step, heparin sepharose, Q-sepharose, Superdex-200)
Turning to B1, in series [2], the “stoichiometry N” value came to 6 DnaC per DnaB hexamer.

For TTTTTTTTTTTTTTTTTTTTTTTTTTTTTTTTTTTTTTTTTTTTT (ssDNA) [T45], in series [3], the binding result is “no binding”.

B2: bacteriophage λP helicase loader (natural protein, UniProt P03689 1-233, looked up)
chain: MKNIAAQMVNFDREQMRRIANNMPEQYDEKPQVQQVAQIINGVFSQLLATFPASLANRDQNEVNEIRRQWVLAFRENGITTMEQVNAGMRVARRQNRPFLPSPGQFVAWCREEASVTAGLPNVSELVDMVYEYCRKRGLYPDAESYPWKSNAHYWLVTNLYQNMRANALTDAELRRKAADELVHMTARINRGEAIPEPVKQLPVMGGRPLNRAQALAKIAEIKAKFGLKGASV
notes: bacteriophage λ replication protein P (helicase loader), full length, 233 residues, 26,518 Da, untagged; Five copies stand in the predominant complex with the DnaB hexamer; The 6BBM model of λP has no side chains and covers about residues 109-233; also called lambdaP; LP; source: E. coli BL21(DE3), co-expressed with DnaB (pCDFDuet-λP); purified as the BP complex (ammonium sulfate, Q-sepharose, …)
Take B2: the “stoichiometry N” value in series [4] was 5 λP per DnaB hexamer; in series [5] it was 5 λP per DnaB hexamer and 6 λP per DnaB hexamer and 4 λP per DnaB hexamer; in series [6] it was 5 λP per DnaB hexamer and 6 λP per DnaB hexamer and 4 λP per DnaB hexamer.

For the molecule B3, the “stoichiometry N” value in series [7] came out at 6 subunits.

As to TTTTTTTTTTTTTTTTTTTTTTTTT (ssDNA) [T25], the binding result in series [3] is given as “no binding”.

In the case of TTTTTTTTTTTTTTTTTTTTTTTTTTTTTTTTTTT (ssDNA) [T35], the binding result in series [3] is recorded as “no binding”.

These data come from PMC6391071, “Mechanisms of opening and closing of the bacterial replicative helicase” (eLife, 2018).
